According to article PMC8421203 (Nucleic Acids Research, 2021):
Positions count from the first letter of the chain named.

Tests used:
[1] = target: Zebrafish PHF14PZP (278–487) (zebrafish); assay: ITC
[2] = target: PHF14 PZP domain, 278-487; assay: ITC; conditions: reference: unmodified H3(1-15) peptide; sites T3
[3] = target: T1, PHF14PZP E301A (zebrafish, UniProt A0A286Y9D1 278-487, E301A); assay: ITC
T1 sequence: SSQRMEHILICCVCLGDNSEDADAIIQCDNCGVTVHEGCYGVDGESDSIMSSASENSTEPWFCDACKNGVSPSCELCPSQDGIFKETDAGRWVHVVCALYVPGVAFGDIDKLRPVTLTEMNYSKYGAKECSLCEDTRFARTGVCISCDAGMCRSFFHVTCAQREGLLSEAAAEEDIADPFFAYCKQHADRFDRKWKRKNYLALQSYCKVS

[4] = target: T2, Zebrafish PHF14PZP (278–487) (zebrafish, UniProt A0A286Y9D1 278-487); assay: crystal structure
T2 sequence: T1 sequence with A24E

[5] = Thermal shift assay; format: physicochemical; conditions: 2 mg/ml protein, 5× Sypro Orange, 100 mM NaCl, 20 mM HEPES-Na pH 7.5, 25°C to 90°C at 0.5°C per minute

## unmodified histone H3(1–15) peptide (from UniProt P68431 2-16)
[1]
  Kd: 12.7 µM

## histone H3 1-15 (from UniProt P68431) H3(1-15) T3ph peptide
[2]
  KD: lost; reference 12.7

## ARTKQTARKSTGGKA [unmodified histone H3(1–15) peptide]
[3]
  fold decrease of affinity against wild-type PHF14PZP: ~28 fold

## ARTKQTARKSTGG [histone H3(1–13), as joined to PHF14PZP in the fusion protein]
[4]
  binding result: binds

B1: H3(1–13)-PHF14PZP: chimeric protein: H3(1–13) fused to the N-terminus of PHF14PZP (aa 278–487) through an 'SGSGS' linker (protein)
chain: ARTKQTARKSTGGSGSGSSSQRMEHILICCVCLGDNSEDADEIIQCDNCGVTVHEGCYGVDGESDSIMSSASENSTEPWFCDACKNGVSPSCELCPSQDGIFKETDAGRWVHVVCALYVPGVAFGDIDKLRPVTLTEMNYSKYGAKECSLCEDTRFARTGVCISCDAGMCRSFFHVTCAQREGLLSEAAAEEDIADPFFAYCKQHADRFDRKWKRKNYLALQSYCKVS
modifications: left off: 10xHis-SUMO, N-terminal, cleaved
[5]
  positive Tm shift versus free state PHF14PZP: 3.2 °C
